PMC9367177

Target: SARS-CoV-2 RBD (Wuhan-1), monomeric, His-Avitag (SARS-CoV-2, Wuhan-1) (UniProt P0DTC2)
Assay: SPR

With CC12.1 IgG (antibody) the Kd was 6 nM.
